B1: Guanylyl cyclase-activating protein 1, P43080 (parent)
chain: MGNVMEGKSVEELSSTECHQWYKKFMTECPSGQLTLYEFRQFFGLKNLSPSASQYVEQMFETFDFNKDGYIDFMEYVAALSLVLKGKVEQKLRWYFKLYDVDGNGCIDRDELLTIIQAIRAINPCSDTTMTAEEFTDTVFSKIDVNGDGELSLEEFIEGVQKDQMLLDTLTRSLDLTRIVRRLQNGEQDEEGADEAAEAAG

Variants of: B1
Settings: Homo sapiens; pH 7.5; Thermal; CD; Tris-HCl; KCl; transition: 2; whole UniProt chain shown

Variant | change of melting temperature, mutant - wild type (higher = more stable)
MGNVMEGKSVEELSSTECHQWYKKFMTECPSGQLTLYEFRQFFGLKNLSPSASQYVEQMFETFDFNKDGYIDFMEYVAALSLVFKGKVEQKLRWYFKLYDVDGNGCIDRDELLTIIQAIRAINPCSDTTMTAEEFTDTVFSKIDVNGDGELSLEEFIEGVQKDQMLLDTLTRSLDLTRIVRRLQNGEQDEEGADEAAEAAG [L84F] | -9.3 °C
MGNVMEGKSVEELSSTECHQWYKKFMTECPSGQLTLYEFRQFFGLKNLSPSASQYVEQMFETFDFNKDGYIDFMEYVAALSLVLKGKVEQKLRWYFKLYDVDGNGCTDRDELLTIIQAIRAINPCSDTTMTAEEFTDTVFSKIDVNGDGELSLEEFIEGVQKDQMLLDTLTRSLDLTRIVRRLQNGEQDEEGADEAAEAAG [I107T] | -8.1 °C

Same assay, conditions: Homo sapiens; pH 7.5; Thermal; CD; Tris-HCl; KCl; transition: 3; whole UniProt chain shown

Variant | change of melting temperature, mutant - wild type (higher = more stable)
MGNVMEGKSVEELSSTECHQWYKKFMTECPSGQLTLYEFRQFFGLKNLSPSASQYVEQMFETFDFNKDGYIDFMEYVAALSLVLKGKVEQKLRWYFKLYDVDGNGCTDRDELLTIIQAIRAINPCSDTTMTAEEFTDTVFSKIDVNGDGELSLEEFIEGVQKDQMLLDTLTRSLDLTRIVRRLQNGEQDEEGADEAAEAAG [I107T] | -8.1 °C
